According to doi:10.1101/2021.07.28.453719 (bioRxiv, 2021):
No end group written: not given here.

Legend:
[1] = target: first bromodomain (BD1) of BRD4, wild type (human, UniProt O60885); assay: ITC
[2] = target: first bromodomain (BD1) of BRD3, wild type (human, UniProt Q15059); assay: ITC
first bromodomain (BD1) of BRD3, wild type, sequence (Q15059 24-144): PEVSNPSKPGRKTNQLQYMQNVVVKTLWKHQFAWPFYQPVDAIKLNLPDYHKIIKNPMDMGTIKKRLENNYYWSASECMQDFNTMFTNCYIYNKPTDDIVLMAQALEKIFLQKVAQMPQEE

| Kd [1] [µM] | binding result [2] | Binder |
| --- | --- | --- |
| 167 ± 28 | binds | AK(Ac)GLLLK(Ac)G [diacetylated ILF3 peptide 10 (AKacGLLLKacG)] |
| 60 ± 10 | – | AK(Ac)GALLK(Ac)G [ILF3 variant peptide AKacGALLKacG (aa 99-106) 15 carrying L102A] |
